Here are results for 3 molecules from publication PMC3965549, “Evidence for LINC1-SUN Associations at the Plant Nuclear Periphery” (PLoS ONE, 2014).

T1: AtLINC1-YFP (Arabidopsis, UniProt F4HRT5 1-1132)
T1 construct: Little Nuclei 1 (LINC1) of Arabidopsis; also called Little Nuclei 1
T1 sequence (looked up): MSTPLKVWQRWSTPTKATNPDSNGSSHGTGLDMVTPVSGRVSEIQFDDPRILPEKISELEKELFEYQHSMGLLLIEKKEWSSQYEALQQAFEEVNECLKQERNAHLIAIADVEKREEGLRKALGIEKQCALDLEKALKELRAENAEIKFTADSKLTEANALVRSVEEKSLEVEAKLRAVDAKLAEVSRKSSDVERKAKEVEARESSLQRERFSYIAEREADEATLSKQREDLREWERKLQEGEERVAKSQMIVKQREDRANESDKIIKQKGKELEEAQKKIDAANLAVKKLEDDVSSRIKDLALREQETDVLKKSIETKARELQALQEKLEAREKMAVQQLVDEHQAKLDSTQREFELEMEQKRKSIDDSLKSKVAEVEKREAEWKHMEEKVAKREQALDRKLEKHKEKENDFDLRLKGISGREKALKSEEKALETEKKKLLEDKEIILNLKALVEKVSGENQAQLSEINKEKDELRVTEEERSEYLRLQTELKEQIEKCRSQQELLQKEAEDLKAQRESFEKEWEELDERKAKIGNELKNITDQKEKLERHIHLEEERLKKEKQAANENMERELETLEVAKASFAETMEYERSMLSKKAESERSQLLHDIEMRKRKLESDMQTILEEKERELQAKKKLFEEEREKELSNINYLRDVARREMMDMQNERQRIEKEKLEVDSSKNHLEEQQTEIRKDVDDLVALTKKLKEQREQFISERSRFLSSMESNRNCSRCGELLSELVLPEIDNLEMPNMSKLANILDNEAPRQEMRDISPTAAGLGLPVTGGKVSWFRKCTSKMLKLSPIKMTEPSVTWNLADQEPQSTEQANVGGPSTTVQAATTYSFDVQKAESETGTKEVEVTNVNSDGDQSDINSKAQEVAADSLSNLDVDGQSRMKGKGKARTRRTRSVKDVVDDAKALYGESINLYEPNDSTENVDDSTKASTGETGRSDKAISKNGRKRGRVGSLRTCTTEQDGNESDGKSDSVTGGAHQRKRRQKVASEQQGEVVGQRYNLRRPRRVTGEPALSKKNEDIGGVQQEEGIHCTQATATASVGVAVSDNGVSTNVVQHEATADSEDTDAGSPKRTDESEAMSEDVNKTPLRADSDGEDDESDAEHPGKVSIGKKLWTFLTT

B1: AtSUN2-CFP (natural protein, Arabidopsis, UniProt Q9SG79 1-455, looked up)
chain: MSASTVSITASPRTIRRTPVLSGEKKSNFDFPPSESHANAAIGESSAGTNKDLIRAEAAGERSNTYDVGPVTRKSGSTATGTNTTTTQRRTRKSQGNKIDRGKWKTVVRVFAKQFGALLLLVGLIQLIRKLTLKDSSLSSSNFPIETEMVLSELESRISAVDGLVKTTTKMMQVQVEFLDKKMDSESRALRQTIDSTSSVLHSELKKVESKTERLQVSVDELNAKPLVSREELERVYEELKKGKVGDSDVNIDKLRAYARDIVEKEIGKHVADGLGRVDYALASGGAFVMGHSDPFLVGNGRNWFGTSRRRVHSKAVKMLTPSFGEPGQCFPLKGSNGYVLVRLRAPIIPEAVTLEHVSKAVAYDRSSAPKDCRVSGWLGDIDMETETMPLLTEFSYDLDRSNAQTFDIADSAHSGLVNTVRLDFNSNHGSSSHTCIYRFRVHGRELDSVSVAHA
notes: AtSUN2, Sad1/UNC84 domain protein 2 of Arabidopsis; also called full length AtSUN2; source: Nicotiana benthamiana leaves, transient expression by A. tumefaciens GV3101 infiltration (pK7CWG2), in living cells; not shown: CFP, C-terminal, kept
B2: AtSUN2^1–106-CFP (domain or fragment, Arabidopsis, UniProt Q9SG79 1-106, looked up)
chain: MSASTVSITASPRTIRRTPVLSGEKKSNFDFPPSESHANAAIGESSAGTNKDLIRAEAAGERSNTYDVGPVTRKSGSTATGTNTTTTQRRTRKSQGNKIDRGKWKT
notes: N-terminus of AtSUN2 of Arabidopsis: the first 318 bp (106 aa) of the CDS; also called SUN2 N-terminus; AtSUN2 N-terminus; source: Nicotiana benthamiana leaves, transient expression by A. tumefaciens GV3101 infiltration (pK7CWG2), in living cells; not shown: CFP, C-terminal, kept
B3: AtSUN1-CFP (natural protein, Arabidopsis, UniProt Q9FF75 1-471, looked up)
chain: MSASTVSITANTAAATRRTPILAGEKKSNFDYPQSESLANGGVGEAGGTSRDLSRGEATLDRSQGQDLGPVTRRSVSAATGTNTTATQRRTRKVATPKSEKARWKTVVRIFAKQLGALLIIVGLIQLTRKMILKASSPSSPISSYETEMAFSGLESRIAEVDGLVKATTNSMQVQVELLDKKMEREAKVLRQEIERKASAFQSELKKIESRTESLEKSVDEVNAKPWVTKDELERIYEELKKGNVDDSAFSEISIDELRAYARDIMEKEIEKHAADGLGRVDYALASGGAFVMEHSDPYLVGKGSSWFATTMRRAHTNAVKMLSPSFGEPGQCFPLKGSEGYVQIRLRGPIIPEAFTLEHVAKSVAYDRSSAPKDCRVSGSLQGPESSAETENMQLLTEFTYDLDRSNAQTFNILESSSSGLIDTVRLDFTSNHGSDSHTCIYRFRVHGRAPDPVPVVGTNLDQDSSPESE
notes: AtSUN1, Sad1/UNC84 domain protein 1 of Arabidopsis; also called full length AtSUN1; source: Nicotiana benthamiana leaves, transient expression by A. tumefaciens GV3101 infiltration (pK7CWG2), in living cells; not shown: CFP, C-terminal, kept

In this assay the target is T1, AtLINC1-YFP. Description: FRET or BRET; acceptor photobleaching FRET (apFRET) in N. benthamiana leaf cells 3 days after infiltration; CFP donor on the SUN constructs, YFP acceptor on AtLINC1; YFP bleached in a constant ROI; pre-bleach fluorescence as internal negative control; about 35 NE per sample. The note with it: partners not purified. (In general: BRET reads energy transfer from a luciferase to a nearby fluorophore.)
Turning to B1, the “FRET efficiency (EF)” value turned out to be 1.9%. The value for B2 was 1.29%; that for B3 was 1.85%.
